From US20230099801A1, “RESTORATION OF T CELL ACTIVITY VIA THE CD39/CD73 AXIS” (INNATE PHARMA, priority 2017, published 2023)
Entries after “also recorded” stand apart in the source; their conditions may differ.

Columns and labels:
[1] = system: cynomolgus CD39 (CHO-cyCD39); test: Inhibition of cellular CD39 ATPase activity in CHO-cyCD39 cells; format: cell-based, cynomolgus (Macaca fascicularis)
Experimental: The inhibition of the CD39 enzymatic activity in CD39-expressing cells by antibodies was evaluated using Cell Titer Glo™ (Promega, reference G7571) that allows assessment of ATP hydrolysis through use of a reagent that generates a luminescent signal proportional to the amount of ATP present. The assay was thus designed to permit assessment of the inhibition of ATP hydrolyzed by CD39 in the cell culture supernatant. Briefly, 5×10^4 Ramos human lymphoma cells, 5×10^3 human CD39-, cynomolgus CD39—and mouse CD39-expressing CHO cells, were incubated 1 hour at 37° C. with anti-CD39 antibodies from 30 μg/ml to 5×10^−4 μg/ml. Cells were then incubated with 20 μM ATP for 1 additional hour at 37° C. Plates were centrifuged for 2 min at 400 g and 50 μl cell supernatant are transferred in a luminescence microplate (white wells). 50 μl CellTiter-Glo® Reagent (CTG) was added to the supernatant and emitted light was quantified after a 5 min incubation in the dark using a Enspire™ luminometer. Anti-CD39 antibody efficacy was determined by comparing emitted light in presence of antibody with ATP alone (maximal light emission) and ATP together with cells (minimal light emission).

[2] = biological target: T1, CHO cells expressing murine CD39 (CHO-moCD39) (Mus musculus, UniProt P55772); test: Antibody titration on CHO-moCD39 cells by flow cytometry; format: binding
T1 construct: expressed in transfected cells; host or cells: CHO cells
T1 sequence (P55772 1-510): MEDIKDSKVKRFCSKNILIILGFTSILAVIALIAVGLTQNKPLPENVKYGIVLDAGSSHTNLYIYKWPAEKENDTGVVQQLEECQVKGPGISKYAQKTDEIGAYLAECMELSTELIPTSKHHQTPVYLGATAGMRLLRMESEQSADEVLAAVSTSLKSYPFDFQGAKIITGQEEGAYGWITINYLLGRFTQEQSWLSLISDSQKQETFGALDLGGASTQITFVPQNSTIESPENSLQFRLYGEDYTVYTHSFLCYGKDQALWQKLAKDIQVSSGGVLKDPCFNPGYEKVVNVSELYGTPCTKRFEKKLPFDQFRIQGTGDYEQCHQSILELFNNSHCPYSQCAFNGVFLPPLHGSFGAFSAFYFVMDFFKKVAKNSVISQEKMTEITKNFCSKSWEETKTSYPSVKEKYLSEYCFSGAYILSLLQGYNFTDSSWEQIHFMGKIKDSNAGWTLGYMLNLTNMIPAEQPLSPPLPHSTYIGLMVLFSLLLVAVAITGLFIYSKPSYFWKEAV
Experimental: (§1) Cells were incubated with various concentration of unlabeled anti-CD39 antibody from 30 μg/ml to 5×10^−4 μg/ml, for 30 minutes at 4° C. After washes, cells were incubated with Goat anti-mouse H+L labeled secondary antibody for 30 min at 4° C.

[3] = biological target: T2, Human CD39-L3 (NTPDase3, ENTPD3) (Homo sapiens, UniProt O75355); test: ELISA titration on CD39-L3; format: binding
T2 sequence (O75355 1-529): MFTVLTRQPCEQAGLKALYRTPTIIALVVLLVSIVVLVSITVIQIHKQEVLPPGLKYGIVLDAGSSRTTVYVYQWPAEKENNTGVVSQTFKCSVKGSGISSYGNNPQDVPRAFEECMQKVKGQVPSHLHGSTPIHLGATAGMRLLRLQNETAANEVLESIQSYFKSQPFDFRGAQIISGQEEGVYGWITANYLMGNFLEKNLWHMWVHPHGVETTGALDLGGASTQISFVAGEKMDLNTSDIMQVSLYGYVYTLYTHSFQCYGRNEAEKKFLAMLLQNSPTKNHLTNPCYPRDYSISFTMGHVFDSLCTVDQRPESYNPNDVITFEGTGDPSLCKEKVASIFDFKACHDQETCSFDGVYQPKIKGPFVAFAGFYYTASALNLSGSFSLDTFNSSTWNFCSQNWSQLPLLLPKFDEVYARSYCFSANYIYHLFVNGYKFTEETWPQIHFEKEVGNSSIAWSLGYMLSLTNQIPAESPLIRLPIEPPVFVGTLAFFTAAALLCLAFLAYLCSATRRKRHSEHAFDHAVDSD
Experimental: Wells were washed in TBS Tween 20, and further saturated 2H at RT in TBS Blocking buffer. Dose range concentration of primary antibody was incubated in TBS blocking buffer for 2h at RT. Wells were washed in TBS Tween 20. […] Optical density was measured on Enspire™ at OD=450.

[4] = biological target: T3, human Ramos lymphoma cells (Homo sapiens, UniProt P49961); test: Antibody titration on Ramos cells by flow cytometry; format: binding
T3 construct: host or cells: Ramos human lymphoma cells
T3 sequence (P49961 1-510): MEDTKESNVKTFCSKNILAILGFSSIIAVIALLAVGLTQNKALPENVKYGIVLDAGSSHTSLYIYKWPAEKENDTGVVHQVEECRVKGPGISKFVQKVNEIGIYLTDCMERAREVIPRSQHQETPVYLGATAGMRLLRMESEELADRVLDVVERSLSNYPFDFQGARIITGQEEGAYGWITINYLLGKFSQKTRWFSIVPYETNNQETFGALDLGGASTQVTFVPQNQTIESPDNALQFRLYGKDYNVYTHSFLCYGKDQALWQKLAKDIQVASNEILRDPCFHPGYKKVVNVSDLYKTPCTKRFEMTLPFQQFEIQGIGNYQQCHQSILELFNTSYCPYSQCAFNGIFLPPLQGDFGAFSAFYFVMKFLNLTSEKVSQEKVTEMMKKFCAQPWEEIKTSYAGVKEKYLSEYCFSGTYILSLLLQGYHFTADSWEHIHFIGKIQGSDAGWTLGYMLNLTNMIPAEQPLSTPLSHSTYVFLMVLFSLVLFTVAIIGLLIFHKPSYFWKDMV
Experimental: as §1

[5] = biological target: T4, cell-membrane bound CD39 (CD39-expressing cells) (Homo sapiens, UniProt P49961); test: Inhibition of the enzymatic activity of cellular CD39, Cell Titer Glo; format: cell-based
T4 construct: host or cells: CD39-expressing cells
T4 sequence (P49961 1-510): T3 sequence (P49961 1-510)
Experimental: The ability of an antibody to inhibit cells expressing CD39 protein can be tested by detecting ATP after incubating test antibody with cells (e.g., Ramos cells, cells transfected with CD39, etc.). See, e.g., Example 1. Cells can be incubated for 1 hour at 37° C. with test antibody. Cells are then incubated with 20 μM ATP for 1 additional hour at 37° C. Plates are centrifuged for 2 min at 400 g and cell supernatant are transferred in a luminescence microplate (white wells). CTG is added to the supernatant and emitted light is quantified after a 5 min incubation in the dark using an Enspire™ luminometer. Anti-CD39 antibody efficacy is determined by comparing emitted light in presence of antibody with ATP alone (maximal light emission) and ATP together with cells (minimal light emission).
The inhibition of the CD39 enzymatic activity in CD39-expressing cells by antibodies was evaluated using Cell Titer Glo™ (Promega, reference G7571) that allows assessment of ATP hydrolysis through use of a reagent that generates a luminescent signal proportional to the amount of ATP present. […] Plates were centrifuged for 2 min at 400 g and 50 μl cell supernatant are transferred in a luminescence microplate (white wells). 50 μl CellTiter-Glo® Reagent (CTG) was added to the supernatant and emitted light was quantified after a 5 min incubation in the dark using a Enspire™ luminometer. […]

[6] = system: CHO cells expressing cynomolgus CD39 (CHO-cyCD39); test: Antibody titration on CHO-cyCD39 cells by flow cytometry; format: binding, cynomolgus (Macaca fascicularis)
Experimental: as §1

B1: I-394: anti-CD39 antibody, VH SEQ ID NO: 6, VL SEQ ID NO: 7; heavy/light chains SEQ ID NOS: 52 and 53 (antibody)
heavy: EVQLQQSGPELVKPGASVKMSCKASGYTFTDYNMHWVKQSHGRTLEWIGYIVPLNGGSTFNQKFKGRATLTVNTSSRTAYMELRSLTSEDSAAYYCARGGTRFAYWGQGTLVTVSAASTKGPSVFPLAPSSKSTSGGTAALGCLVKDYFPEPVTVSWNSGALTSGVHTFPAVLQSSGLYSLSSVVTVPSSSLGTQTYICNVNHKPSNTKVDKRVEPKSCDKTHTCPPCPAPEAEGAPSVFLFPPKPKDTLMISRTPEVTCVVVDVSHEDPEVKFNWYVDGVEVHNAKTKPREEQYNSTYRVVSVLTVLHQDWLNGKEYKCKVSNKALPSSIEKTISKAKGQPREPQVYTLPPSREEMTKNQVSLTCLVKGFYPSDIAVEWESNGQPENNYKTTPPVLDSDGSFFLYSKLTVDKSRWQQGNVFSCSVMHEALHNHYTQKSLSLSPGK
light: DIVLTQSPASLAVSLGQRATISCRASESVDNFGVSFMYWFQQKPGQPPNLLIYGASNQGSGVPARFRGSGSGTDFSLNIHPMEADDTAMYFCQQTKEVPYTFGGGTKLEIKRTVAAPSVFIFPPSDEQLKSGTASVVCLLNNFYPREAKVQWKVDNALQSGNSQESVTEQDSKDSTYSLSSTLTLSKADYEKHKVYACEVTHQGLSSPVTKSFNRGEC
modifications: Chimeric homo sapiens mus musculus
With B1 the “blocking CD39 enzymatic activity in cells expressing cynomolgus CD39” value [1] was “blocks; also recorded: highly potent”, the “binding to cells expressing murine CD39” value [2] was “not to cells expressing murine CD39” and the “binding to CD39-L3 in ELISA” value [3] was “not to any of the human isoforms”. For the same molecule, the “binding to Ramos lymphoma cells” value [4] was “bound; also recorded: binds”, the “inhibition of the enzymatic activity of cellular (cell-membrane bound) CD39” value [5] was “substantially fully blocks; also recorded: inhibit” and the “potency and maximal inhibition of cellular CD39 compared to BY40” value ([5]; FIG. 2A) was “greater potency and maximal inhibition; also recorded: greater potency at all concentrations as well as greater maximal inhibition”. The “binding to cells expressing cynomolgus CD39” value [6] was “bound; also recorded: binds”.
